This assay has as its target T1, Ca2+-calmodulin (of the unpublished KD) ( (rat cDNA cloned), UniProt P0DP29 1-149).
T1 construct: also called Ca2+-CaM
The experiment in a line: not stated; unpublished ('A.A. in preparation'); affinity of the Kv7 CaM-binding site for Ca2+-CaM.

B1: Kv7.2 CaM-binding site (construct of the unpublished KD not stated) (domain or fragment)
chain: not shown
notes: the construct may be that of m1
In turn, B1 returned a Kd of around 25 nM.

B2: Kv7.3 CaM-binding site (construct of the unpublished KD not stated) (domain or fragment)
chain: not shown
With B2, the Kd is around 25 nM.

Broadly, the Kd is the free concentration of one partner at which half of the binding sites on the other are occupied at equilibrium, for simple one-to-one binding.

Source of the values: publication PMC3182250 (PLoS ONE, 2011).
